B1: TRIM35 (parent)
chain: DKELLCCSCQADPRHQGHRVQPVK

Variants of: B1
Assay: protein stability index of a GFP-peptide fusion (GPS, HEK-293T) (PSI 1-6); higher = more stable
Conditions: c terminus: a fixed tail appended
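Also: lentivirally expressed fusions sorted by FACS into six bins by GFP to DsRed ratio, PSI derived from sequencing read proportions per bin multiplied by bin number.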

First: DKELSCCSCQADPRHQGHRVQPVK [L5S]
Second: DKELWCCSCQADPRHQGHRVQPVK [L5W]
The protein stability index of the first is higher: 4.44 for the first, 3.18 for the second.

First: DKELKCCSCQADPRHQGHRVQPVK [L5K]
Second: DKELYCCSCQADPRHQGHRVQPVK [L5Y]
The protein stability index of the first is higher: 3.58 for the first, 2.93 for the second.

First: DKELICCSCQADPRHQGHRVQPVK [L5I]
Second: DKELLRCSCQADPRHQGHRVQPVK [C6R]
The protein stability index of the first is higher: 3.76 for the first, 3.54 for the second.

Compared with DKELLKCSCQADPRHQGHRVQPVK [C6K], DKELLECSCQADPRHQGHRVQPVK [C6E] is lower in protein stability index: 4.36 for the first, 4.3 for the second.

Compared with DKELLLCSCQADPRHQGHRVQPVK [C6L], DKELLHCSCQADPRHQGHRVQPVK [C6H] is higher in protein stability index: 3.41 for the first, 4.45 for the second.

First: DKELLTCSCQADPRHQGHRVQPVK [C6T]
Second: DKELLACSCQADPRHQGHRVQPVK [C6A]
The protein stability index of the first is higher: 3.76 for the first, 3.61 for the second.

First: DKELLDCSCQADPRHQGHRVQPVK [C6D]
Second: DKELLYCSCQADPRHQGHRVQPVK [C6Y]
The protein stability index of the first is higher: 5.31 for the first, 3 for the second.

First: DKELLMCSCQADPRHQGHRVQPVK [C6M]
Second: DKELLFCSCQADPRHQGHRVQPVK [C6F]
The protein stability index of the first is higher: 3.74 for the first, 2.99 for the second.

First: DKELLSCSCQADPRHQGHRVQPVK [C6S]
Second: DKELLICSCQADPRHQGHRVQPVK [C6I]
The protein stability index of the first is higher: 3.73 for the first, 2.61 for the second.

Compared with DKELLPCSCQADPRHQGHRVQPVK [C6P], DKELLNCSCQADPRHQGHRVQPVK [C6N] is higher in protein stability index: 3.64 for the first, 3.87 for the second.

Going from DKELLWCSCQADPRHQGHRVQPVK [C6W] to DKELLVCSCQADPRHQGHRVQPVK [C6V], the protein stability index falls from 2.29 to 2.25.

First: DKELLCCSCQADPCHQGHRVQPVK [R14C]
Second: DKELLCCSCQADPAHQGHRVQPVK [R14A]
The protein stability index of the first is higher: 4.24 for the first, 4.06 for the second.

Compared with DKELLCCSCQADPFHQGHRVQPVK [R14F], DKELLCCSCQADPHHQGHRVQPVK [R14H] is higher in protein stability index: 3.35 for the first, 3.69 for the second.

Going from DKELLCCSCQADPIHQGHRVQPVK [R14I] to DKELLCCSCQADPQHQGHRVQPVK [R14Q], the protein stability index falls from 4.18 to 3.75.

Compared with DKELLCCSCQADPMHQGHRVQPVK [R14M], DKELLCCSCQADPNHQGHRVQPVK [R14N] is higher in protein stability index: 3.97 for the first, 4.13 for the second.

Compared with DKELLCCSCQADPKHQGHRVQPVK [R14K], DKELLCCSCQADPEHQGHRVQPVK [R14E] is higher in protein stability index: 3.37 for the first, 3.85 for the second.

Compared with DKELLCCSCQADPLHQGHRVQPVK [R14L], DKELLCCSCQADPPHQGHRVQPVK [R14P] is higher in protein stability index: 3.43 for the first, 4.18 for the second.

First: DKELLCCSCQADPSHQGHRVQPVK [R14S]
Second: DKELLCCSCQADPDHQGHRVQPVK [R14D]
The protein stability index of the first is lower: 3.58 for the first, 4.05 for the second.

Compared with DKELLCCSCQADPGHQGHRVQPVK [R14G], DKELLCCSCQAPPRHQGHRVQPVK [D12P] is lower in protein stability index: 3.03 for the first, 2.78 for the second.

Going from DKELLCCSCQAQPRHQGHRVQPVK [D12Q] to DKELLCCSCQARPRHQGHRVQPVK [D12R], the protein stability index falls from 3.4 to 3.21.

Compared with DKELLCCSCQAGPRHQGHRVQPVK [D12G], DKELLCCSCQATPRHQGHRVQPVK [D12T] is lower in protein stability index: 3.13 for the first, 3.01 for the second.

First: DKELLCCSCQAMPRHQGHRVQPVK [D12M]
Second: DKELLCCSCQAVPRHQGHRVQPVK [D12V]
The protein stability index of the first is lower: 2.72 for the first, 3.21 for the second.

Compared with DKELLCCSCQAYPRHQGHRVQPVK [D12Y], DKELLCCSCQAAPRHQGHRVQPVK [D12A] is higher in protein stability index: 2.75 for the first, 3.52 for the second.

First: DKELLCCSCQAIPRHQGHRVQPVK [D12I]
Second: DKELLCCSCQAHPRHQGHRVQPVK [D12H]
The protein stability index of the first is lower: 2.45 for the first, 2.89 for the second.

First: DKELLCCSCQAFPRHQGHRVQPVK [D12F]
Second: DKELLCCSCQALPRHQGHRVQPVK [D12L]
The protein stability index of the first is higher: 2.73 for the first, 2.53 for the second.

Compared with DKELLCCSCQACPRHQGHRVQPVK [D12C], DKELLCCSCQAKPRHQGHRVQPVK [D12K] is lower in protein stability index: 4.09 for the first, 3.81 for the second.

First: DKELLCCSCQANPRHQGHRVQPVK [D12N]
Second: DKELLCCSCQAEPRHQGHRVQPVK [D12E]
The protein stability index of the first is lower: 3.12 for the first, 3.78 for the second.

Going from DKELLCCSCQAWPRHQGHRVQPVK [D12W] to DKELLCCSCQASPRHQGHRVQPVK [D12S], the protein stability index falls from 3.48 to 3.06.

First: DKELLCCSCQYDPRHQGHRVQPVK [A11Y]
Second: DKELLCCSCQDDPRHQGHRVQPVK [A11D]
The protein stability index of the first is lower: 2.93 for the first, 4.08 for the second.

First: DKELLCCSCQGDPRHQGHRVQPVK [A11G]
Second: DKELLCCSCQCDPRHQGHRVQPVK [A11C]
The protein stability index of the first is higher: 3.95 for the first, 3.23 for the second.

First: DKELLCCSCQFDPRHQGHRVQPVK [A11F]
Second: DKELLCCSCQKDPRHQGHRVQPVK [A11K]
The protein stability index of the first is lower: 4.14 for the first, 4.3 for the second.

Compared with DKELLCCSCQWDPRHQGHRVQPVK [A11W], DKELLCCSCQVDPRHQGHRVQPVK [A11V] is higher in protein stability index: 2.84 for the first, 3.13 for the second.

Going from DKELLCCSCQSDPRHQGHRVQPVK [A11S] to DKELLCCSCQHDPRHQGHRVQPVK [A11H], the protein stability index falls from 3.67 to 3.29.

Going from DKELLCCSCQIDPRHQGHRVQPVK [A11I] to DKELLCCSCQEDPRHQGHRVQPVK [A11E], the protein stability index falls from 3.52 to 3.26.

Compared with DKELLCCSCQQDPRHQGHRVQPVK [A11Q], DKELLCCSCQRDPRHQGHRVQPVK [A11R] is higher in protein stability index: 3.41 for the first, 3.85 for the second.

Going from DKELLCCSCQTDPRHQGHRVQPVK [A11T] to DKELLCCSCQMDPRHQGHRVQPVK [A11M], the protein stability index falls from 4.25 to 2.76.

Going from DKELLCCSCQLDPRHQGHRVQPVK [A11L] to DKELLCCSCQNDPRHQGHRVQPVK [A11N], the protein stability index rises from 3.46 to 4.24.

Compared with DKELLCCSCQPDPRHQGHRVQPVK [A11P], DKELLCCSCLADPRHQGHRVQPVK [Q10L] is lower in protein stability index: 3.87 for the first, 2.85 for the second.

First: DKELLCCSCFADPRHQGHRVQPVK [Q10F]
Second: DKELLCCSCGADPRHQGHRVQPVK [Q10G]
The protein stability index of the first is higher: 3.01 for the first, 2.6 for the second.

Going from DKELLCCSCSADPRHQGHRVQPVK [Q10S] to DKELLCCSCMADPRHQGHRVQPVK [Q10M], the protein stability index rises from 2.89 to 3.27.

First: DKELLCCSCKADPRHQGHRVQPVK [Q10K]
Second: DKELLCCSCTADPRHQGHRVQPVK [Q10T]
The protein stability index of the first is lower: 3.8 for the first, 4.04 for the second.

Going from DKELLCCSCYADPRHQGHRVQPVK [Q10Y] to DKELLCCSCVADPRHQGHRVQPVK [Q10V], the protein stability index falls from 3.49 to 3.29.

Compared with DKELLCCSCHADPRHQGHRVQPVK [Q10H], DKELLCCSCDADPRHQGHRVQPVK [Q10D] is higher in protein stability index: 3.79 for the first, 4.1 for the second.

Compared with DKELLCCSCEADPRHQGHRVQPVK [Q10E], DKELLCCSCWADPRHQGHRVQPVK [Q10W] is lower in protein stability index: 4.44 for the first, 2.53 for the second.

First: DKELLCCSCAADPRHQGHRVQPVK [Q10A]
Second: DKELLCCSCPADPRHQGHRVQPVK [Q10P]
The protein stability index of the first is lower: 3.41 for the first, 3.91 for the second.

First: DKELLCCSCNADPRHQGHRVQPVK [Q10N]
Second: DKELLCCSCRADPRHQGHRVQPVK [Q10R]
The protein stability index of the first is higher: 4.07 for the first, 3.68 for the second.

Going from DKELLCCSCCADPRHQGHRVQPVK [Q10C] to DKELLCCSCIADPRHQGHRVQPVK [Q10I], the protein stability index rises from 3.38 to 3.87.
